From the supplement of paper PMC7877785
± gives the uncertainty stated by the source.

Experiment: self-splicing fitness, log relative to wild type (ln ratio); higher = more splicing; Tetrahymena group I intron in knt gene, E. coli kanamycin selection, DiMSum; sequences stand for … in CUCUCU…GGAGGGAAAAGUUAUCAGGCAUGCACCUGGUAGCUAGUCUUUAAACCAAUAGAUUGCAUCGGUUUAAAAGGCAAGACCGUCAAAUUGCGGGAAAGGGGUCAACAGCCGUUCAGUACCAAGUCUCAGGGGAAACUUUGAGAUGGCCUUGCAAAGGGUAUGGUAAUAAGCUGACGGACAUGGUCCUAACCACGCAGCCAAGUCCUAAGUCAACAGAUCUUCUGUUGAUAUGGAUGCAGUUCACAGACUAAAUGUCGGUCGGGGAAGAUGUAUUCUUCUCAUAAGAUAUAGUCGGACCUCUCCUUAAUGGGAGCUAGCGGAUGAAGUGAUGCAACACUGGAGCCGCUGGGAACUAAUUUGUAUGCGAAAGUAUAUUGAUUAGUUUUGGAGUACUCGUGGUCG
Procedure, shortened: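 Six replicate transformations of E. coli BL21(DE3) with a pET-22b(+) library were grown overnight at 37°C or 30°C. The library randomised all eight P1ex-region intron nucleotides, the intron lying in the knt kanamycin-resistance gene, and plates were LB agar with or without 25 μg/mL kanamycin plus 100 μg/mL carbenicillin, 50 μM IPTG and 0.2% rhamnose. Pooled colonies were amplicon-sequenced on an Illumina HiSeq 2500, and fitness is the DiMSum error-weighted combination of wild-type-normalised replicate fold changes, kanamycin versus none.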

| Sequence | self-splicing fitness (ln) (30 °C) | self-splicing fitness (ln) (37 °C) |
| --- | --- | --- |
| GUUUAGCAAUAUUACGAAAA | -1.78 ± 0.29 | -0.97 ± 0.25 |
| GUUUAGCAAUAUUACGAAGA | – | -0.651 ± 0.34 |
| GUUUAGCAAUAUUACGAAGU | -2.65 ± 0.16 | -2.03 ± 0.38 |
| GUUUAGCAAUAUUACGAGCA | -1.35 ± 0.25 | -0.983 ± 0.48 |
| GUUUAGCAAUAUUACGAGCU | – | -0.552 ± 0.27 |
| GUUUAGCAAUAUUACGAGGA | -2.48 ± 0.44 | -1.79 ± 0.37 |
| GUUUAGCAAUAUUACGAGGC | -2.48 ± 0.24 | -2.45 ± 0.24 |
| GUUUAGCAAUAUUACGCCCU | -0.651 ± 0.098 | -0.533 ± 0.11 |
| GUUUAGCAAUAUUACGCCUU | -1.21 ± 0.17 | -0.678 ± 0.21 |
| GUUUAGCAAUAUUACGCGAA | -3.53 ± 0.49 | -2.01 ± 0.22 |
| GUUUAGCAAUAUUACGCGCA | -0.466 ± 0.1 | -0.363 ± 0.12 |
| GUUUAGCAAUAUUACGCUCG | -0.147 ± 0.15 | 0.0286 ± 0.21 |
| GUUUAGCAAUAUUACGGACU | – | 1.32 ± 0.45 |
| GUUUAGCAAUAUUACGGCAA | -0.678 ± 0.14 | -1.03 ± 0.13 |
| GUUUAGCAAUAUUACGGCUC | 0.0411 ± 0.094 | 0.193 ± 0.12 |
| GUUUAGCAAUAUUACGGGGC | -2.67 ± 0.33 | – |
| GUUUAGCAAUAUUACGGUCA | -1.26 ± 0.19 | -0.326 ± 0.16 |
| GUUUAGCAAUAUUACGGUUU | -1.32 ± 0.1 | -0.0737 ± 0.13 |
| GUUUAGCAAUAUUACGUAUC | -0.904 ± 0.28 | -0.233 ± 0.36 |
| GUUUAGCAAUAUUACGUCAC | -3.24 ± 0.24 | -0.353 ± 0.17 |
| GUUUAGCAAUAUUACGUCCU | -1.12 ± 0.24 | -1.03 ± 0.25 |
| GUUUAGCAAUAUUACGUCUU | -0.801 ± 0.11 | -0.25 ± 0.11 |
| GUUUAGCAAUAUUACGUGCC | -2.91 ± 0.36 | – |
| GUUUAGCAAUAUUACGUUGG | -3.81 ± 0.37 | -1.45 ± 0.23 |
| UAAAAGCAAUAUUACGAAAA | -2.94 ± 0.2 | -1.71 ± 0.16 |
| UAAAAGCAAUAUUACGAACA | -0.822 ± 0.072 | 0.504 ± 0.11 |

| Sequence | self-splicing fitness (ln) (30 °C) | self-splicing fitness (ln) (37 °C) |
| --- | --- | --- |
| UAAAAGCAAUAUUACGAACC | -3.12 ± 0.36 | -1.25 ± 0.45 |
| UAAAAGCAAUAUUACGACCC | -1.73 ± 0.28 | 0.481 ± 0.33 |
| UAAAAGCAAUAUUACGACGA | -0.526 ± 0.087 | -0.201 ± 0.086 |
| UAAAAGCAAUAUUACGAGCU | -2.07 ± 0.11 | -1.68 ± 0.14 |
| UAAAAGCAAUAUUACGAUCA | -0.503 ± 0.08 | 0.0071 ± 0.11 |
| UAAAAGCAAUAUUACGCAAG | -1.48 ± 0.06 | -0.639 ± 0.073 |
| UAAAAGCAAUAUUACGCCGA | -1.16 ± 0.12 | -0.318 ± 0.14 |
| UAAAAGCAAUAUUACGCCGU | -3.01 ± 0.21 | -2.1 ± 0.22 |
| UAAAAGCAAUAUUACGCGCU | -1.22 ± 0.14 | 0.0478 ± 0.17 |
| UAAAAGCAAUAUUACGCGGG | -2.62 ± 0.1 | -1.43 ± 0.12 |
| UAAAAGCAAUAUUACGCUGA | -2.35 ± 0.2 | -0.613 ± 0.14 |
| UAAAAGCAAUAUUACGCUGC | -2.51 ± 0.18 | -1.35 ± 0.26 |
| UAAAAGCAAUAUUACGCUUC | – | -3.19 ± 0.25 |
| UAAAAGCAAUAUUACGCUUG | -1.9 ± 0.12 | -0.981 ± 0.14 |
| UAAAAGCAAUAUUACGCUUU | -3.78 ± 0.23 | -2.52 ± 0.3 |
| UAAAAGCAAUAUUACGGAAC | -3.24 ± 0.27 | -2.68 ± 0.4 |
| UAAAAGCAAUAUUACGGACC | -1.44 ± 0.2 | -1.46 ± 0.29 |
| UAAAAGCAAUAUUACGGCAC | -1.64 ± 0.14 | -1.13 ± 0.2 |
| UAAAAGCAAUAUUACGGUGA | -1.15 ± 0.077 | -0.788 ± 0.076 |
| UAAAAGCAAUAUUACGGUGG | -2.08 ± 0.088 | -1.43 ± 0.089 |
| UAAAAGCAAUAUUACGGUUU | -2.78 ± 0.095 | -0.178 ± 0.091 |
| UAAAAGCAAUAUUACGUAAU | -2.6 ± 0.12 | -1.08 ± 0.13 |
| UAAAAGCAAUAUUACGUGCA | -0.586 ± 0.067 | -0.196 ± 0.079 |
| UAAAAGCAAUAUUACGUGUU | -4.13 ± 0.15 | -2.63 ± 0.14 |
| UAAAAGCAAUAUUACGUUAA | -2.14 ± 0.15 | -1.38 ± 0.13 |
| UAACAGCAAUAUUACGAAAG | -1.44 ± 0.14 | -1.76 ± 0.21 |

| Sequence | self-splicing fitness (ln) (30 °C) | self-splicing fitness (ln) (37 °C) |
| --- | --- | --- |
| UAACAGCAAUAUUACGAAGU | -3.97 ± 0.17 | -3.18 ± 0.16 |
| UAACAGCAAUAUUACGACCC | -2.15 ± 0.18 | -1.42 ± 0.19 |
| UAACAGCAAUAUUACGACCU | -0.404 ± 0.098 | 0.106 ± 0.11 |
| UAACAGCAAUAUUACGACUU | -0.586 ± 0.084 | 0.316 ± 0.11 |
| UAACAGCAAUAUUACGAGCU | -3.71 ± 0.12 | -2.37 ± 0.11 |
| UAACAGCAAUAUUACGAGUU | -2.87 ± 0.11 | -1.8 ± 0.12 |
| UAACAGCAAUAUUACGAUAC | -2.65 ± 0.39 | -2.7 ± 0.48 |
| UAACAGCAAUAUUACGAUUU | -1.47 ± 0.056 | -0.218 ± 0.065 |
| UAACAGCAAUAUUACGCAUU | -2.59 ± 0.12 | -0.539 ± 0.096 |
| UAACAGCAAUAUUACGCGCG | -0.332 ± 0.064 | -0.361 ± 0.078 |
| UAACAGCAAUAUUACGCUAC | -3.37 ± 0.15 | -2.24 ± 0.2 |
| UAACAGCAAUAUUACGCUCG | -0.803 ± 0.096 | -0.212 ± 0.098 |
| UAACAGCAAUAUUACGGAGU | -3.7 ± 0.17 | -1.41 ± 0.12 |
| UAACAGCAAUAUUACGGAUC | -3.92 ± 0.22 | -2.17 ± 0.15 |
| UAACAGCAAUAUUACGGCCA | -0.28 ± 0.066 | -0.439 ± 0.071 |
| UAACAGCAAUAUUACGGCUU | -0.716 ± 0.082 | -0.0863 ± 0.1 |
| UAACAGCAAUAUUACGGUGC | -3.42 ± 0.23 | -2.86 ± 0.2 |
| UAACAGCAAUAUUACGGUUG | -0.966 ± 0.043 | -1.04 ± 0.064 |
| UAACAGCAAUAUUACGGUUU | -1.14 ± 0.05 | -0.621 ± 0.063 |
| UAACAGCAAUAUUACGUAAU | -3.27 ± 0.14 | -2.23 ± 0.14 |
| UAACAGCAAUAUUACGUAGC | -3.86 ± 0.17 | -2.02 ± 0.11 |
| UAACAGCAAUAUUACGUGCC | -3.5 ± 0.22 | -1.9 ± 0.15 |
| UAACAGCAAUAUUACGUUCG | -0.514 ± 0.057 | 0.266 ± 0.073 |
| UAACAGCAAUAUUACGUUCU | -1.17 ± 0.08 | -0.668 ± 0.079 |
| UAAGAGCAAUAUUACGACGA | -1.72 ± 0.19 | -1.61 ± 0.21 |
